Read-outs that look alike come from different tables or passages of the source.
Columns and labels:
[1] = system: breast cancer cell lines MCF-7, MDA-MB-231, ZR-75-1; assay: Resazurin cell viability assay in breast cancer cell lines; conditions: 100 µM MPP+, 100 µmol/L doxorubicin, 72 h
Method: Resazurin-Assay: To determine cell viability, cells were seeded at a density of 10,000 cells/well in 96-well multiplates. […] Afterward, 100 µL from each well was placed in a cavity of a 96-well plate, and the fluorescence was determined on a microplate reader (TECAN infinite M200, Tecan GmbH, Crailsheim, Germany) at an excitation wavelength of 530 nm and an emission wavelength of 590 nm.

P-gp = molecular target: T1, P-gp (Homo sapiens, UniProt P08183); assay: Transwell assay, MDCKII cells stably expressing P-gp; type: cell-based; conditions: PSC833 10 µmol/L; 100 µmol/L doxorubicin
T1 construct: expressed in transfected cells; host or cells: MDCKII
Method: In brief, MDCKII cells stably expressing P-gp or BCRP were seeded on 0.4 µm Transwell® membrane inserts (200.000 cells/insert; Ø6.5 mm, growth area 0.33 cm2) and allowed to differentiate for five days. The integrity of the monolayer was confirmed by monitoring the trans-epithelial electrical resistance (TEER) using the EVOMX system (WPI, Sarasota, FL, USA). […] Every 30 min, the incubation buffer was removed from the receiver compartment and replaced by a freshly preheated buffer for a total time of 2.5 h.

[2] = substrate: COc1cccc2c1C(=O)c1c(O)c3c(c(O)c1C2=O)C[C@@](O)(C(=O)CO)C[C@@H]3O[C@H]1C[C@H](N)[C@H](O)[C@H](C)O1; assay: cells, lysate or membranes; conditions: other: MDCKII-OCT3; doxorubicin 0–100 µmol/L; 3 min; mean ± SD; 37.0 °C
[3] = substrate: COc1cccc2c1C(=O)c1c(O)c3c(c(O)c1C2=O)C[C@@](O)(C(=O)CO)C[C@@H]3O[C@H]1C[C@H](N)[C@H](O)[C@H](C)O1

T1 sequence (P08183 whole entry): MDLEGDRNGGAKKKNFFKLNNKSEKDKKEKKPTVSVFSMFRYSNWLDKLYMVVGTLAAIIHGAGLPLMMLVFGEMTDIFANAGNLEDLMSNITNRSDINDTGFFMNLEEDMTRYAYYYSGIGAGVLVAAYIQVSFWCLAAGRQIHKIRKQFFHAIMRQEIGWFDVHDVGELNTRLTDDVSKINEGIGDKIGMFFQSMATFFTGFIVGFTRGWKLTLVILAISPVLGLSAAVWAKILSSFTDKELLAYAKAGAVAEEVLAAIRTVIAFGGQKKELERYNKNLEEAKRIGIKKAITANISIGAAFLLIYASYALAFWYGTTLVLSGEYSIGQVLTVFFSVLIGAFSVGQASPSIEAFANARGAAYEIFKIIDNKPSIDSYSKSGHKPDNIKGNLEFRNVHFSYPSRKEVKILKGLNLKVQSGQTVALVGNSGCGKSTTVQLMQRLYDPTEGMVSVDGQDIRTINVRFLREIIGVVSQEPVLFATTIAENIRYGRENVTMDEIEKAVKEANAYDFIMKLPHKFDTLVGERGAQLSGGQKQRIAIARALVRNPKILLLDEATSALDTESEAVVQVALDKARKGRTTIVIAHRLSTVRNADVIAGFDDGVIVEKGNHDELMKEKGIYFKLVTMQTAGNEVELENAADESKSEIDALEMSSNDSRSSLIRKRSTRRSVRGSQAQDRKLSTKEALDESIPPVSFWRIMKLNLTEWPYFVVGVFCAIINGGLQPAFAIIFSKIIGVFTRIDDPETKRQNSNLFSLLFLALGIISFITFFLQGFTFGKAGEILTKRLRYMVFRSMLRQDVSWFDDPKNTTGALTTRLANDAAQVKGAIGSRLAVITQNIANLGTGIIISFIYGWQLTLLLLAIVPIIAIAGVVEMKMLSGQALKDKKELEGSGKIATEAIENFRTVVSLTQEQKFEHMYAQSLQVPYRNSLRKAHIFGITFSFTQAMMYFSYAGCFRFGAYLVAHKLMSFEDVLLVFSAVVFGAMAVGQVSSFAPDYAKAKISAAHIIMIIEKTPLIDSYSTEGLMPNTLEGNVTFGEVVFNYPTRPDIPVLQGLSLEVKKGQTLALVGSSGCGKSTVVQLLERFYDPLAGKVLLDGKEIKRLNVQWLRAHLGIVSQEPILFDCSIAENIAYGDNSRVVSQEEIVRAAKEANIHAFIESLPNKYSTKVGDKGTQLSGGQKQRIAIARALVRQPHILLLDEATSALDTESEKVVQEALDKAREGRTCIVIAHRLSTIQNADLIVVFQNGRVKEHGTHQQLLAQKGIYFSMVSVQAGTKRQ

In the case of `C[n+]1ccc(-c2ccccc2)cc1` [MPP+], the “effect of inhibitor on cytotoxic effects of doxorubicin” value [1] is reported as “significantly attenuated”.

`C/C=C/C[C@@H](C)C(=O)[C@H]1C(=O)N[C@@H](C(C)C)C(=O)N(C)CC(=O)N(C)[C@@H](CC(C)C)C(=O)N[C@@H](C(C)C)C(=O)N(C)[C@@H](CC(C)C)C(=O)N[C@@H](C)C(=O)N[C@H](C)C(=O)N(C)[C@@H](CC(C)C)C(=O)N(C)[C@@H](CC(C)C)C(=O)N(C)[C@@H](C(C)C)C(=O)N1C` [PSC833] was tested, and the “effect of inhibitor on P-gp-mediated vectorial transport of doxorubicin” value (P-gp) was “markedly reduced”.

B1: OCT3 (Homo sapiens) (protein)
chain: MPSFDEALQRVGEFGRFQRRVFLLLCLTGVTFAFLFVGVVFLGTQPDHYWCRGPSAAALAERCGWSPEEEWNRTAPASRGPEPPERRGRCQRYLLEAANDSASATSALSCADPLAAFPNRSAPLVPCRGGWRYAQAHSTIVSEFDLVCVNAWMLDLTQAILNLGFLTGAFTLGYAADRYGRIVIYLLSCLGVGVTGVVVAFAPNFPVFVIFRFLQGVFGKGTWMTCYVIVTEIVGSKQRRIVGIVIQMFFTLGIIILPGIAYFIPNWQGIQLAITLPSFLFLLYYWVVPESPRWLITRKKGDKALQILRRIAKCNGKYLSSNYSEITVTDEEVSNPSFLDLVRTPQMRKCTLILMFAWFTSAVVYQGLVMRLGIIGGNLYIDFFISGVVELPGALLILLTIERLGRRLPFAASNIVAGVACLVTAFLPEGIAWLRTTVATLGRLGITMAFEIVYLVNSELYPTTLRNFGVSLCSGLCDFGGIIAPFLLFRLAAVWLELPLIIFGILASICGGLVMLLPETKGIALPETVDDVEKLGSPHSCKCGRNKKTPVSRSHL
With B1 the Km [2] was 13.0 ± 10.7 µM.

B2: OCT1 (Homo sapiens) (protein)
chain: MPTVDDILEQVGESGWFQKQAFLILCLLSAAFAPICVGIVFLGFTPDHHCQSPGVAELSQRCGWSPAEELNYTVPGLGPAGEAFLGQCRRYEVDWNQSALSCVDPLASLATNRSHLPLGPCQDGWVYDTPGSSIVTEFNLVCADSWKLDLFQSCLNAGFLFGSLGVGYFADRFGRKLCLLGTVLVNAVSGVLMAFSPNYMSMLLFRLLQGLVSKGNWMAGYTLITEFVGSGSRRTVAIMYQMAFTVGLVALTGLAYALPHWRWLQLAVSLPTFLFLLYYWCVPESPRWLLSQKRNTEAIKIMDHIAQKNGKLPPADLKMLSLEEDVTEKLSPSFADLFRTPRLRKRTFILMYLWFTDSVLYQGLILHMGATSGNLYLDFLYSALVEIPGAFIALITIDRVGRIYPMAMSNLLAGAACLVMIFISPDLHWLNIIIMCVGRMGITIAIQMICLVNAELYPTFVRNLGVMVCSSLCDIGGIITPFIVFRLREVWQALPLILFAVLGLLAAGVTLLLPETKGVALPETMKDAENLGRKAKPKENTIYLKVQTSEPSGT
In the case of B2, the Km [3] is reported as 4.66 ± 3.43 µM.

B3: OCT2 (Homo sapiens) (protein)
chain: MPTTVDDVLEHGGEFHFFQKQMFFLLALLSATFAPIYVGIVFLGFTPDHRCRSPGVAELSLRCGWSPAEELNYTVPGPGPAGEASPRQCRRYEVDWNQSTFDCVDPLASLDTNRSRLPLGPCRDGWVYETPGSSIVTEFNLVCANSWMLDLFQSSVNVGFFIGSMSIGYIADRFGRKLCLLTTVLINAAAGVLMAISPTYTWMLIFRLIQGLVSKAGWLIGYILITEFVGRRYRRTVGIFYQVAYTVGLLVLAGVAYALPHWRWLQFTVSLPNFFFLLYYWCIPESPRWLISQNKNAEAMRIIKHIAKKNGKSLPASLQRLRLEEETGKKLNPSFLDLVRTPQIRKHTMILMYNWFTSSVLYQGLIMHMGLAGDNIYLDFFYSALVEFPAAFMIILTIDRIGRRYPWAASNMVAGAACLASVFIPGDLQWLKIIISCLGRMGITMAYEIVCLVNAELYPTFIRNLGVHICSSMCDIGGIITPFLVYRLTNIWLELPLMVFGVLGLVAGGLVLLLPETKGKALPETIEEAENMQRPRKNKEKMIYLQVQKLDIPLN
Work on B3 yielded a Km [3] of 76.1 ± 42.8 µM.

Reference: paper PMC8745601 (International Journal of Molecular Sciences, 2021)
